Target: T1, DLL3 purified protein (human, UniProt Q9NYJ7 27-492, limits assumed)
T1 construct: also called purified DLL3; immobilized human DLL3
T1 sequence (looked up): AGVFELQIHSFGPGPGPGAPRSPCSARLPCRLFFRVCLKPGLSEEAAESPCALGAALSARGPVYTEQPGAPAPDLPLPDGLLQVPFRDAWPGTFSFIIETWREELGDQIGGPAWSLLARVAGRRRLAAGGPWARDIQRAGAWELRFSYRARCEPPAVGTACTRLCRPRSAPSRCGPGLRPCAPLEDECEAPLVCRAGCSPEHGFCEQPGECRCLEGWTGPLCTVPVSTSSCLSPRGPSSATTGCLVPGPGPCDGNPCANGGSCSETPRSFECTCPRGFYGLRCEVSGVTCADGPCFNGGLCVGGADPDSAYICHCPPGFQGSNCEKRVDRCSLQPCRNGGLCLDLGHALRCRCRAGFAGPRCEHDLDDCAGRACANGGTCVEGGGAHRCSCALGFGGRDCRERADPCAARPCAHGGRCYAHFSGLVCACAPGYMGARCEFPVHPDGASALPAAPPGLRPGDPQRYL
Assay: ELISA, plate coated with 1 ug/ml purified DLL3, serially diluted antibody, detection with HRP-conjugated anti-human IgG1 reporter mAb, TMB, OD450
Description: Site-specific anti-DLL3 antibodies fabricated as set forth in the previous Examples were screened by an ELISA assay to determine whether they bound to DLL3 purified protein. The parental native antibody was used as a control and run alongside the site-specific anti-DLL3 antibody. Binding of the antibodies to DLL3 was detected with a monoclonal antibody (mAb) reporter antibody conjugated to horseradish peroxidase (HRP), (Southern Biotech, Cat. No. SB9052-05), which binds to an epitope present on human IgG1 molecules. HRP reacts with its substrate tetramethyl benzidine (TMB). The amount of […] TMB is directly proportional to the amount of test antibody bound to DLL3.
ELISA plates were coated with 1 μg/ml purified DLL3 in PBS and incubated overnight at 4° C. Excess protein was removed by washing and the wells were blocked with 2% (w/v) BSA in PBS with 0.05% tween 20 (PBST), 200 μL/well for 1 hour at room temperature. After washing, 100 μL/well serially diluted antibody or ADC were added in PBST for 1 hour at room temperature. The plates were washed again and 0.5 ug/ml of 100 μL/well of the appropriate reporter antibody was added in PBST for 1 hour at room temperature. […] The samples were then analyzed by spectrophotometer at OD 450.

B1: hSC16.56 (antibody, human IgG1, kappa, V domains shown)
VH: QVQLVQSGAEVKKPGASVKVSCKASGYTFTNYGMNWVRQAPGQGLEWMGWINTYTGEPTYADDFKGRVTMTTDTSTSTAYMELRSLRSDDTAVYYCARIGDSSPSDYWGQGTLVTVSS
VL: EIVMTQSPATLSVSPGERATLSCKASQSVSNDVVWYQQKPGQAPRLLIYYASNRYTGIPARFSGSGSGTEFTLTISSLQSEDFAVYYCQQDYTSPWTFGQGTKLEIKR
notes: Native human IgG1/kappa; also called humanized SC16.56; humanized anti-DLL3 antibody hSC16.56
EC50 (read off the curve): ~10 ng/mL

— US20180346565A1 (AbbVie / Abbott, published 2018)
